4 molecules from patent US20200353078A1 (AstraZeneca / MedImmune, published 2020) can be followed below.

The target in experiment [1] is T1, Human IL-33 (Axxora/Alexis ALX-522-098) (human, UniProt O95760 112-270).
T1 sequence (looked up): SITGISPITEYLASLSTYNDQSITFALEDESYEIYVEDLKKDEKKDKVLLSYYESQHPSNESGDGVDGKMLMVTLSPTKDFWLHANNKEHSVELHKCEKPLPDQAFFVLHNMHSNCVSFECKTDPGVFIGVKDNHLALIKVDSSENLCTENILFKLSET
As to the kind of experiment: cell-based or functional assay.

The target of experiment [2] is T2, Human IL-33 (Axxora/Adipogen AG-40B-0038) (human, UniProt O95760 112-270, limits assumed).
T2 sequence (looked up): T1 sequence (looked up)
As to the kind of experiment: cell-based or functional assay.

In experiment [3] the target is T3, Mouse IL-33 Flag®His (mouse).
T3 construct: C-terminal FLAG 10xHis tag, E. coli; also called Mature Mouse IL-33_FH; mouse IL-33 FH
T3 chain: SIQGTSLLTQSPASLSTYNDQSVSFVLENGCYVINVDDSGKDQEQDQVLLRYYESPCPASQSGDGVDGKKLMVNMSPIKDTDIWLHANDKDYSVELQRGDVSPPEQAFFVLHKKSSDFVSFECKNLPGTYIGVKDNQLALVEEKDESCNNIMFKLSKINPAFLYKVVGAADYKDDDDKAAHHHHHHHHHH
As to the kind of experiment: ELISA, biotinylated antigen on streptavidin plate, purified IgG. On the procedure: (§1) Streptavidin plates (Thermo Scientific, AB-1226) were coated with biotinylated antigen at 0.5 μg/ml in PBS and incubated overnight at 4° C. Plates were washed 3× with PBS and blocked with 300 μl/well blocking buffer (PBS-M) for 1 hour. Plates were washed 1× with PBS and blocked samples added, 50 μl/well for 1 hour at room temperature. […] Plates were washed 3× with PBS-T and developed with TMB, 50 μl/well (Sigma, T0440). The reaction was quenched with 50 μl/well 0.1M H2504 before reading on an EnVision™ plate reader, or similar equipment, at 450 nm.
(§2) Species cross-reactivity of anti-IL-33 antibodies was determined using a plate-based ELISA. Streptavidin plates (Thermo Scientific, AB-1226) were coated with biotinylated antigen at 0.5 μg/ml in PBS. Binding of purified IgG preparations was detected with anti-human IgG HRP (Sigma, A0170).
In general terms: In an ELISA, binding on a coated surface is turned into a signal by an enzyme label.

Experiment [4] deals with T4, Human IL-33 Flag®His (human).
T4 construct: Mature IL-33 with C-terminal FLAG 10xHis tag, from E. coli; biotinylated via free cysteines where used biotinylated; also called Mature Human IL-33_FH; human IL-33 FH
T4 chain: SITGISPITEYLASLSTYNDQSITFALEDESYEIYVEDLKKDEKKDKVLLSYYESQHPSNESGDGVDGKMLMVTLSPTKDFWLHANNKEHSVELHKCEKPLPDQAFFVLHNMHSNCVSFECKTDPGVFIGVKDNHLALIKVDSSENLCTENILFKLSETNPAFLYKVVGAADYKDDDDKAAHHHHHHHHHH
Nature of the experiment: ELISA, biotinylated antigen on streptavidin plate, anti-human IgG HRP. On the procedure: (§3) 96-well Greiner polypropylene plates (Greiner, 650201) were used for dilution preparation. Generally, each dilution was prepared in duplicate. IgG dilutions were allowed to block in PBS-M for 1 hour at room temperature before being used directly in ELISA experiments.
as §1, §2

For experiment [5], the target named is T5, Cynomolgus IL-33 Flag®His (cynomolgus monkey).
T5 construct: C-terminal FLAG 10xHis tag, E. coli; also called Mature Cynomolugus IL-33; cyno IL-33 FH
T5 chain: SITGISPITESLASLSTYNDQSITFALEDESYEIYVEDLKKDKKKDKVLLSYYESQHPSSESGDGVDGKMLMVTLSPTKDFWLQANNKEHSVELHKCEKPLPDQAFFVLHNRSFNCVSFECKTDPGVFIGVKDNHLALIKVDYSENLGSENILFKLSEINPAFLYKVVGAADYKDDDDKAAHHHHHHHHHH
The description is as above. On the procedure:
as §3, §1, §2

Experiment [6] concerns the target T6, H338L293 (SEQ ID NOs 182 and 187).
T6 construct: IgG; also called H338L293_fgl; H338L293 IgG
Nature of the experiment: Biacore T100, IgG captured on Protein G', 0.625-20 nM peptide as analyte, 1:1 fit. The source says:
The identified peptide together with a truncate ([…]) and scrambled variants of both, were then chemically synthesised and used in confirmatory T100 Biacore (GE Healthcare) binding studies. Protein G′ (Sigma Aldrich, P4689) was covalently coupled to the surface of a CM5 sensor chip (GE Healthcare) using standard amine coupling reagents according to manufacturer's instructions. The protein G′ surface was used to capture H338L293 or ST2-Fc via the Fc domain to provide a surface density of approximately 290 RU per cycle. IL33 peptides prepared in HBS-EP+ buffer, at a range of concentrations were passed over the sensor chip surface. The surface was regenerated using two 10 mM Glycine washes of pH 1.7 and pH 1.5 between each injection of antibody. The resulting sensorgrams were evaluated using Biacore T100 evaluation software 2.0.3 (GE Healthcare) and fitted to a 1:1 Langmuir binding model, to provide relative binding data.
(Surface plasmon resonance follows binding to a sensor surface in real time, without labels.)

Experiment [7] addresses T7, Human ST2-Fc (R&D Systems, or source not stated in the example) (human, UniProt Q01638 19-328).
T7 construct: extracellular domain; also called sST2.Fc; sST2
T7 sequence (looked up): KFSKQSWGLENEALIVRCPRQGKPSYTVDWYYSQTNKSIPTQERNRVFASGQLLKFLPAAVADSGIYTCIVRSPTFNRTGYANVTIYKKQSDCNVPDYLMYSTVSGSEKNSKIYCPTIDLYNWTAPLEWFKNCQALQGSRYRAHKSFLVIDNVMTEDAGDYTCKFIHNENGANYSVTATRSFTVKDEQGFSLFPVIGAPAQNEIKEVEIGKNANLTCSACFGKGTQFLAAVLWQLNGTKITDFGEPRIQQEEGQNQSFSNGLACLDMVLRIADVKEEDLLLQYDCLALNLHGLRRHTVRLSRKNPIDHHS
Nature of the experiment: SPR BIAcore 2000, ST2 captured via Fc-tag on anti-human Fc, IL-33 7.8 nM to 0.24 nM as analyte, 1:1 Langmuir. On the procedure:
The disulphide bonded IL-33 is likely a very different structure to the reduced, ST2-binding IL-33 form (FIG. 22, 23), and conversion to the disulphide bonded form was associated with loss of functional activity (FIG. 17C). To investigate this, the disulphide bonded form of IL-33 was tested for ability to bind ST2 by BIAcore analysis. Direct binding of IL-33 to the extracellular domain of ST2 was determined by Surface Plasmon Resonance using a BIAcore 2000 (GE healthcare). ST2 was immobilised via the Fc-tag using an anti-human Fc capture (GE healthcare BR-1003-39) on a CM5 sensor chip (GE healthcare BR-1003-99) to give a stable surface of approximately 150 RU. IL-33 was flowed over the surface at 30 ul/min for three minutes to determine association rates. Dissociation was measured by flowing buffer at 30 ul/min for 15 minutes. Sensorgrams were interpreted using BIAevaluation software and kinetics were determined using double reference subtracted sensorgrams using a 1:1 (Langmuir) binding model.

For experiment [8], the target named is T2, Human IL-33 (Axxora/Adipogen …). Nature of the experiment: cell-based or functional assay. The source holds these as a separate data set.
The target of experiment [9] is T4, Human IL-33 Flag®His. Nature of the experiment: BIAcore 2000 solution affinity, 48 h equilibration at 25 C, free IgG read on biotinylated IL-33 chip. On the procedure:
The binding affinity of purified IgG samples of exemplary binding members to human, cynomolgus or mouse IL-33 was determined by solution affinity using a BIAcore 2000 (GE healthcare). A biotinylated-IL33 surface was immobilised on a streptavin coated sensor chip (GE healthcare cat. No. BR-1000-32). Anti-IL33 antibodies were incubated with various concentrations of unlabelled IL33 and equilibrated at 25° C. for 48 hours. The amount of free antibody was determined by flowing the samples over the IL33 chip and measuring the response compared to a standard curve of antibody. Affinities were determined using the solution affinity fit in BIAevaluation software. The affinities for antibodies IL330101, H338L293, IL330388, IL330396 binding to human, cynomolgus or mouse IL-33 are shown in Table 15.

Experiment [10] concerns the target T3, Mouse IL-33 Flag®His. Nature of the experiment: ELISA, biotinylated antigen on streptavidin plate, anti-human IgG HRP. On the procedure: as §3, §1, §2
Experiment [11] concerns the target T2, Human IL-33 (Axxora/Adipogen …). As to the kind of experiment: cell-based or functional assay. The source holds these as a separate data set.

T6 sequence (VL, as listed by the source): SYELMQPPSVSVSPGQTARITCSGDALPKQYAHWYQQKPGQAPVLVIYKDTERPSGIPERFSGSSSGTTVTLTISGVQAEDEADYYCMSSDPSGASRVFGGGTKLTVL

B1: IL330065 IgG (antibody, V domains shown)
VH: EVQLVQSGAEVKKPGTAVKISCKASGYTFTDYYIHWVQQAPGKGLEWMGLVDPEDGETKYAEKFQGRVSITADTSTDTAYMELRSLTSEDTAVYFCTMGWAQWGRGTLVTVSS
VL: QSVLTQPPSASGTPGQRVTISCSGSSSNIGSNYVYWYQQVPGTAPKLVIYRDFQRPSGVPDRFSGSKSGNSASLVISGLRSEDEGEYVCAAWDDSLTGPRFGGGTKVTVL
notes: IgG1 or IgG1-TM (L234F, L235E, P331S); functional data combine both formats
One may read the EC50 as the midpoint of the concentration-response curve. Low values mean a more potent agent, high ones a less potent agent. On to B1, for which the “IC50 (geomean), TF-1 proliferation” value in [1] is 81 nM. The “IC50 (geomean), Huvec IL-6 production” value in experiment [2] worked out at 87 nM. In addition, the “IC50 (geomean), Mast cell IL-6 production” value in [2] turned out to be 12 nM. For the same molecule, the binding result with Mouse IL-33 Flag®His [3] is given as “no binding”. Also, the EC50 with Human IL-33 Flag®His [4] is 0.65 nM; in experiment [5], 0.66 nM.

B2: Truncated IL-33 epitope peptide (peptide)
peptide: LSPTKDFWLHANNKEHSVELHK
notes: Chemically synthesised; also called truncate peptide
The Kd is the constant that tells how readily two partners part at equilibrium. B2: the Kd in experiment [6] came out at 2.36 nM.

B3: redIL-33 (detagged human IL33-01, BK349) (ligand, UniProt O95760 112-270, looked up)
chain: T1 sequence (looked up)
notes: Reduced form; also called reduced IL-33; Human IL33-01 detagged
B3: in experiment [7], the dissociation constant (Kd) was 0.2 nM.

B4: IL330101 IgG (antibody, V domains shown)
VH: EVQLLESGGGLVQPGGSLRLSCAASGFTFSSYAMSWVRQAPGKGLEWVSAISGSGGSTYYADSVKGRFTISRDNSKNTLYLQMNSLRAEDTAVYYCVRVVAGYFDSWGRGTLVTVSS
VL: SYVLTQPPSVSVSPGQTARITCSGDALPKQYAHWYQQKPGQAPALVIYKDTERPSGIPERFSGSSSGTTVTLTISGVQAEDEADYYCQSADSSGASRVFGGGTKVTVL
notes: IgG1 or IgG1-TM; also called mAb IL330101; IL3300101
With B4, in experiment [8], the “IC50, Huvec IL-6 production” value came out at 193 nM and the “IC50, Mast cell IL-6 production” value was determined as 93 nM. The same molecule gave a Kd in the experiment with Human IL-33 Flag®His [9] of 0.0032 pM. Besides, the “IC50, TF-1 proliferation” value in [1] was 149 nM. Moreover, in experiment [2], the “IC50 (geomean), Huvec IL-6 production” value is 497 nM and the “IC50 (geomean), Mast cell IL-6 production” value was determined as 49 nM. The molecule also displayed an EC50 with Mouse IL-33 Flag®His [10] of 0.85 nM. In the experiment with Human IL-33 Flag®His [4], this molecule registered an EC50 of 1.19 nM. The molecule also gave an EC50 in [5] of 1.2 nM. Moreover, in [11], the “Huvec IL-6 production, maximum inhibition” value was about 70% and the “Mast cell IL-6 production, inhibition” value came to 100%.
